The values below come from patent US20040101829A1, “Protein that interacts with lipids and methods for treating hyperlipidemia” (The University of Iowa Research Foundation, priority 2002, published 2004).

In one test the test system is human LDL. The test is described as follows: ELISA for E2-LDL interaction (anti-LDL McAb capture, anti-E2 McAb detection). In kind it is binding. The protocol:
FIG. 2: Interaction of E2 with LDL. Increasing amounts of LDL were incubated with purified E2 protein at 4° C. and allowed to bind to mouse monoclonal anti-apolipoprotein B antibody coated in ELISA plates. LDL bound E2 protein was detected with a monoclonal anti-E2 antibody, followed by an alkaline-phosphatase labeled secondary antibody and PNPP substrate. The subtracted blank consisted of E2 protein in the absence of LDL.
Microtiter plates were prepared by coating wells with 100 μl anti-LDL McAb (4 μg/ml in 100 mM bicarbonate buffer, pH 9.6) overnight (ON) at RT (Wuenschmann et al., 2000). […] Plates were washed twice with TBS followed by the addition of 100 μl of E2 protein or E2 protein with LDL in PBS. After ON incubation of samples at RT, plates were washed three times with TBS followed by the addition of anti HCV E2 McAb 108 (7.5 μg/ml). Plates were incubated for 1.5 h and washed three times with TBS; then 100 μl of anti-human IgG-alkaline phosphatase conjugate (Promega, Madison, Wis.) diluted 1/5,000 in BLOTTO was added for 1 h at RT washed four times with TBS, and incubated for 30 min with a 1-mg/ml solution of p-nitrophenyl phosphate (PNPP). Absorbance was measured at 405 nm with a multiwell plate reader. […]

The test system of test [1] is normal human foreskin fibroblasts (FSF). Put plainly: Cell binding assay by flow cytometry, human foreskin fibroblasts (FSF). In kind it is cell-based. The protocol: (§1) FIG. 4D: Binding of recombinant HCV E2 and E2-LDL to human fibroblasts (FSF) and human fibroblasts negative for the human LDLr (Null). Cells were detached non-enzymatically and incubated with E2 or E2/LDL proteins. Cell-bound E2 was detected with monoclonal anti-E2 antibody 108, followed by incubation with a secondary fluorescent labeled anti-human IgG. Cells were analyzed by flow cytometry.
(§2) Recombinant HCV E2 protein or HIV-gp120-FITC, human, rabbit or bovine lipoproteins, HCV or mock virus preparations were added to cells for 60 min at 4° C. Cells were washed and incubated with ligand-specific antibody for 60 min at 4° C. Antibody binding was detected using goat anti-human IgG-Oregon green (10 μg/ml) for 45 min at 4° C. Cells were washed two times, fixed in PBS containing 4% paraformaldehyde, and analyzed by flow cytometry (FACScan, Becton Dickinson).
(§3) The increased level of binding of both proteins to MOLT-4 cells may be due to an association between LDL and HCV E2 that enables the resulting complex to bind to either the LDLr or to CD81. To evaluate this interaction further, mouse 3T3 cells expressing only murine CD81 or cells expressing both murine and human CD81 were studied. […] Therefore, the enhanced E2 binding following incubation with LDL appears to require human LDLr expression on the cell surface. […]
A general note: In flow cytometry, cells or beads pass a laser one at a time.

For test [2], the system named is human fibroblasts that do not express the human LDLr (Null). Put plainly: Cell binding assay by flow cytometry, LDLr-deficient fibroblasts (Null). In kind it is cell-based. The protocol:
as §1, §2, §3

Another test relates to MOLT-4 cells. Put plainly: Cell binding assay by flow cytometry, MOLT-4 cells. In kind it is cell-based, human. As to the method: (§4) MOLT-4 cells, a CD4^+ T lymphoblastoid cell line, and Huh7 cells of hepatocyte origin were obtained from ATCC (Manassas, Va.). Human foreskin fibroblasts (FSF) and LDLr-deficient foreskin fibroblasts (Null) from a patient with familial hypercholesterolemia (Hobbs et al., 1987) were kindly provided by Dr. Jheem Medh.
as §2
HCV-E2 was incubated with increasing concentrations of human LDL for one hour at 4° C. prior to the addition of proteins to MOLT-4 cells. Following one hour at 4° C., cells were washed and HCV E2 binding was detected by flow cytometry. […] The increase in E2 binding in the presence of LDL was seen when either the anti-HCV McAb or anti-HCV polyclonal anti-HCV were used for E2 detection (FIG. 3B). […] To determine if HCV E2 influenced binding of human LDL to MOLT-4 cells, HCV-E2 and fluorescently labeled LDL were incubated for one hour at 4° C. and added to MOLT-4 cells for an additional hour. Cells were washed and analyzed for labeled-LDL binding (FIG. 3E and FIG. 3F).

In test [3] the test system is 3T3 cells expressing human CD81. Put plainly: Cell binding assay by flow cytometry, mouse 3T3 cells with or without human CD81. In kind it is cell-based. As to the method: FIG. 4B: Binding of recombinant HCV E2 to mouse 3T3 cells. Cells were detached non-enzymatically and incubated with recombinant E2 protein. Cell-bound E2 was detected with monoclonal anti-E2 antibody 108, followed by incubation with a secondary fluorescent labeled anti-human IgG. Cells were analyzed by flow cytometry.
FIG. 4C: Binding of HCV E2 and HCV-E2/LDL to mouse 3T3-human CD81 cells. Cells were detached non-enzymatically and incubated with E2 alone or E2/LDL. Cell-bound E2 was detected with monoclonal anti-E2 antibody 108, followed by incubation with a secondary fluorescent labeled anti-human IgG. Cells were analyzed by flow cytometry.
as §2
The increased level of binding of both proteins to MOLT-4 cells may be due to an association between LDL and HCV E2 that enables the resulting complex to bind to either the LDLr or to CD81. […]

The subject of the next test is Huh-7 cells. The test is described as follows: Cell binding assay by flow cytometry, Huh-7 cells. In kind it is cell-based, human. The settings on record: 4° C. As to the method:
FIG. 3A; FIG. 3B; and FIG. 3C: Incubation of LDL enhanced binding of HCV E2. […] Cell-bound E2 was detected using a monoclonal antiE2 antibody (FIG. 3A and FIG. 3C) or a polyclonal anti-E2 serum (FIG. 3B).
as §4, §2

B1: HCV E2: Purified recombinant HCV envelope glycoprotein E2 (Ala 384-Lys 715) expressed in CHO cells, obtained from Austral Biologicals (protein)
chain: ETHVTGGSAGHTVSGFVSLLAPGAKQNVQLINTNGSWHLNSTALNCNDSLNTGWLAGLFYHHKFNSSGCPERLASCRPLTDFDQGWGPISYANGSGPDQRPYCWHYPPKPCGIVPAKSVCGPVYCFTPSPVVVGTTDRSGAPTYSWGENDTDVFVLNNTRPPLGNWFGCTWMNSTGFTKVCGAPPCVIGGAGNNTLHCPTDCFRKHPDATYSRCGSGPWITPRCLVDYPYRLWHYPCTINYTIFKIRMYVGGVEHRLEAACNWTRGERCDLEDRDRSELSPLLLTTTQWQVLPCSFTTLPALSTGLIHLHQNIVDVQYLYGVGSSIASWAIK
As to B1, the “HCV E2 detected in ELISA with murine McAb against human LDL as capture antibody” value in the test on human LDL (E2 alone vs E2 with LDL) is on record as “only detected when complexed with LDL”. Also, the “Extent of E2 captured in relation to LDL concentration” value in the test on human LDL (increasing amounts of LDL) is “directly correlated to the LDL concentration used”. Moreover, the “E2 binding to FSF fibroblasts” value in test [1] (E2 alone) is reported as “bound”. Besides, in test [1] (preincubation with LDL), the “E2 binding to LDLr-expressing fibroblasts when preincubated with LDL” value is on record as “increased binding”. The “E2 binding to Null fibroblasts” value in test [2] (E2 alone) is given as “bound”. For the same molecule, the “Binding of E2-LDL complexes to Null cells compared with E2 alone” value in test [2] (preincubation with LDL) is on record as “equally to E2 alone”. Also, the “E2 binding to MOLT-4 cells” value with MOLT-4 cells (E2 alone, 4° C.) is “bound to MOLT-4 cells”. The “Amount of labeled LDL bound to MOLT-4 cells after preincubation of LDL with HCV-E2” value in the test with MOLT-4 cells (LDL up to concentrations of 2.5 μg/ml, 4° C.) was “the amount of LDL bound increased”. In addition, the “LDL concentration at which the increase in E2 binding was saturable” value in the test with MOLT-4 cells (MOLT-4 cells, 4° C.) was > 2.5 µg/mL. Moreover, the “HCV E2 binding to MOLT-4 cells stripped of lipoproteins by dextran sulfate” value in the test on MOLT-4 cells (cell bound bovine lipoproteins removed with dextran sulfate) is listed as “decreased”. The “Amount of E2 bound to MOLT-4 cells after incubation with lipoproteins” value in the test on MOLT-4 cells (human VLDL, LDL and HDL, bovine lipoproteins) is recorded as “increased”. For the same molecule, the “Amount of cell-bound E2 on MOLT-4 cells after preincubation with apoprotein B” value with MOLT-4 cells (preincubation with apoprotein B (apoB100)) is given as “did not increase the amount of cell-bound E2”. In addition, in the test with MOLT-4 cells (preincubation with human LDL one hour at 4° C.), the “Amount of E2 protein bound to MOLT-4 cells after addition of LDL” value is given as “increased the amount of E2 protein bound”. For the same molecule, in test [3] (3T3 cells expressing human CD81 vs control 3T3 cells), the “E2 binding to 3T3 cells” value is given as “bound only to 3T3 cells expressing human CD81”. Also, the “Amount of cell bound HCV E2 on 3T3-human CD81 cells after preincubation with LDL” value in test [3] (preincubation with LDL) is “did not increase the amount of cell bound HCV E2”. Also, in the test with Huh-7 cells, the “Binding of E2 protein to Huh-7 cells after preincubation with human LDL” value is listed as “increased binding of E2 protein”.
